From patent US20050032064

Target: PPAR GAMMA (Mus musculus) (UniProt P37238)
Assay: cell_activity
Conditions: HepG2 per text (Cos per legend); induction vs empty pSG5; amplified by rosiglitazone

(Rev-DR2)x2 SV40 promoter luciferase reporter
activity: 2.5 fold
